Measurements: patent US20230138315A1 (JIANGSU HENGRUI MEDICINE, published 2023)
Where a chain is given by its changes, count along the chain named. In names and notes the source's numbering stands.

T1: human ANGPTL3(17-170)-mFc (human)
T1 construct: also called fusion protein of the extracellular region of human ANGPTL3 (17-170) and the mouse IgG2aFc fragment
T1 chain: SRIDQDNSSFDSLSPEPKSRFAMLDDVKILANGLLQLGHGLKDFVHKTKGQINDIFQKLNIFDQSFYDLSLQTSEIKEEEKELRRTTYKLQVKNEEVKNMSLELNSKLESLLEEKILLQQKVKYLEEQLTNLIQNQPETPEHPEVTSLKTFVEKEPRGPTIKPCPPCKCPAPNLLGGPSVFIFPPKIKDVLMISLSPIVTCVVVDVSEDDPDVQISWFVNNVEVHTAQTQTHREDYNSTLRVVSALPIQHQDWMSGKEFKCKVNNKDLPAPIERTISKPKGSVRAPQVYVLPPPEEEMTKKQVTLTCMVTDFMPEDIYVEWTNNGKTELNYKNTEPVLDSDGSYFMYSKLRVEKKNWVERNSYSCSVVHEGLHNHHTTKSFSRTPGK

T2: cynomolgus monkey ANGPTL3(17-460)-His (cynomolgus monkey, UniProt Q9Y5C1 17-460 (human entry), biotin-labelled in the ELISA and HTRF assays (sites not given))
T2 construct: also called full-length cynomolgus monkey ANGPTL3; Cyno ANGPTL3
T2 chain: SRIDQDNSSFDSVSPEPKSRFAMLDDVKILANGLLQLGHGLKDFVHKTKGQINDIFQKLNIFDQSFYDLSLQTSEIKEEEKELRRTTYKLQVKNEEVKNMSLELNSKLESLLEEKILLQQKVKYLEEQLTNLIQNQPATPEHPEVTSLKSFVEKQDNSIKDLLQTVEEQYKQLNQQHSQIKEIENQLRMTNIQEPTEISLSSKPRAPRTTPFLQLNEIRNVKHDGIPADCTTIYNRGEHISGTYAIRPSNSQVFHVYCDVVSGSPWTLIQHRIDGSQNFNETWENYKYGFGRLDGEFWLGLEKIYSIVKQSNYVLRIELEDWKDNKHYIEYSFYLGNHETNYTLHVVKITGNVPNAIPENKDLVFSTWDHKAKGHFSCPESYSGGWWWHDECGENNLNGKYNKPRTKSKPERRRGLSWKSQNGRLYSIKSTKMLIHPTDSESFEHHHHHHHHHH

B1: P8G (antibody, human IgG4 S228P, kappa, V domains shown)
VH: QVQLVQSGAEVKKPGASVKVSCKASGYTFTSYDINWVRQAPGQGLEWVGLINPRDDSTSYAQKFQGRVTMTRDTSTSTMYMELSSLRSEDTAVYFCARDLGSIREVLYYGMDVWGQGTTVTVSS
VL: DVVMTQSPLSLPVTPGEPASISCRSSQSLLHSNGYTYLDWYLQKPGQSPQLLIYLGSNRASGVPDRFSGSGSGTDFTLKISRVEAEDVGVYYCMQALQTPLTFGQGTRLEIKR
notes: also called anti-ANGPTL3 antibody P8G; P8 (variable regions)
B2: P8BG (antibody, human IgG4 S228P, kappa, V domains shown)
VH: B1 VH with D55E
VL: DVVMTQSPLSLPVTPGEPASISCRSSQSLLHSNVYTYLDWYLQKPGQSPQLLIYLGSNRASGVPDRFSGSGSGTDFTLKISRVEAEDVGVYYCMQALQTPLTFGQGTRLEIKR
notes: also called anti-ANGPTL3 antibody P8BG; P8B (variable regions)
B3: P3G (antibody, human IgG4 S228P, kappa, V domains shown)
VH: QVQLVQSGAEVKKPGASVKVSCKSSGYTFTDYYLHWLRQAPGQGPEWMGWISPNSGGTSYAQKFQGRVTMTRDTSISTAYMELSSLRSDDTAVYYCARDIATLGNFFTYGMDVWGQGTTVTVSS
VL: DIQLTQSPSSLSASVGDRVTITCRASQGIRNDLGWYQQKPGKAPKLLIYAASSLQSGVPSRFSGSGSGTDFTLTISSLQPEDFATYYCQQSYSSWTFGQGTKVEIKR
notes: also called anti-ANGPTL3 antibody P3G; P3 (variable regions)

Biological target: T1, human ANGPTL3(17-170)-mFc
Assay: ELISA; human ANGPTL3(17-170)-mFc captured by coated goat anti-mouse IgG
Experimental: (§1) The binding activity of the anti-ANGPTL3 antibody to the ANGPTL3 antigen was tested by an ELISA assay. The ANGPTL3 protein (human ANGPTL3(17-170)-mFc) was immobilized on a 96-well microplate by binding to the goat anti-mouse IgG coated on the microplate, and the binding activity of the antibody to the ANGPTL3 was determined according to the intensity of the signal after the antibody was added.
Goat anti-mouse IgG (Sigma, M3534-1ML) was diluted to a concentration of 2 μg/mL with PBS buffer (Shanghai BasalMedia, B320, pH 7.4), added to a 96-well microplate (Corning, CLS3590-100EA) at 50 μL/well, and then incubated in an incubator at 37° C. for 3 h or incubated at 4° C. overnight (16-18 h). After the liquid was discarded, a PBS-diluted 5% skim milk (BD, 232100) blocking solution was added at 250 μL/well, and the mixture was incubated in an incubator at 37° C. for 3 h or incubated at 4° C. overnight (16-18 h) for blocking. After the blocking was finished, the blocking solution was discarded and the plate was washed 3 times with PBST buffer (pH 7.4 PBS containing 0.05% Tween-20), and then human ANGPTL3(17-170)-mFc (with sequence set forth in SEQ ID NO: 3) diluted to 0.5 μg/mL with a sample diluent (pH 7.4 PBS containing 1% BSA) was added at 50 μL/well. The mixture was incubated in an incubator at 37° C. for 2 h. After the incubation was finished, the reaction solution in the microplate was discarded. The plate was washed 3 times with PBST, and then a test antibody that was diluted with a sample diluent to different concentrations was added at 50 μL/well. The mixture was incubated in an incubator at 37° C. for 2 h. After the incubation was finished, the plate was washed 3 times with PBST, and a goat anti-human secondary antibody (Jackson Immuno Research, 109-035-003) that was diluted with the sample diluent was added at 50 μL/well. The mixture was incubated at 37° C. for 1 h.

Binder | EC50
B1 | 0.361 nM
B2 | 0.172 nM
B3 | 2.48 nM

Biological target: T2, cynomolgus monkey ANGPTL3(17-460)-His
Assay: ELISA; biotin-labelled antigen on streptavidin-coated plate
Experimental: as §1, with “An anti-ANGPTL3 antibody inhibited or interfered with at least one activity of an ANGPTL3 protein by binding to the ANGPTL3 protein. The binding” for “The binding”
Streptavidin (Sigma, S4762-5MG) was diluted to a concentration of 3 μg/mL with PBS buffer (Shanghai BasalMedia, B320, pH 7.4), added to a 96-well microplate (Corning, CLS3590-100EA) at 50 μL/well, and then incubated in an incubator at 37° C. for 3 h or incubated at 4° C. overnight (16-18 h). After the liquid was discarded, a PBS-diluted 5% skim milk (BD, 232100) blocking solution was added at 250 μL/well, and the mixture was incubated in an incubator at 37° C. for 3 h or incubated at 4° C. overnight (16-18 h) for blocking. […] The mixture was incubated in an incubator at 37° C. for 2 h. After the incubation was finished, the reaction solution in the microplate was discarded. The plate was washed 3 times with PBST, and then a test antibody that was diluted with a sample diluent to different concentrations was added at […]. The mixture was incubated in an incubator at 37° C. for 2 h.

Binder | EC50
B1 | 2.53 nM
B2 | 0.2 nM
B3 | 4.55 nM
